According to publication PMC7021899, “N-terminal domain of the architectural protein CTCF has similar structural organization and ability to self-association in bilaterian organisms” (Scientific Reports, 2020):
Blank lines part the entries; values can stand above or below the molecule they belong to.

What was measured:
[1] = target: N-terminal domain of Drosophila virilis CTCF (1-144 aa), without Thioredoxin (Drosophila virilis); assay: SAXS; BM29 BioSAXS beamline (ESRF), 277 K, at least two concentrations; molecular mass from extrapolated I0 and protein standards
[2] = target: Thioredoxin-tagged N-terminal domain of Drosophila virilis CTCF (1-144 aa) (Drosophila virilis); assay: cross-linking; Thioredoxin-tagged NTDs, increasing concentrations of glutaraldehyde
[3] = target: the molecule itself; assay: as above
[4] = target: the molecule itself; assay: SAXS; BM29 BioSAXS beamline (ESRF), 277 K, at least two concentrations; molecular mass from extrapolated I0 and protein standards

stoichiometry N [1]: 2
Molecule: N-terminal domain of Drosophila virilis CTCF (1-144 aa), without Thioredoxin (domain or fragment)

stoichiometry N [2]: 2
Molecule: Thioredoxin-tagged N-terminal domain of Drosophila virilis CTCF (1-144 aa) (domain or fragment)

Further lines, the molecule ahead of its results:

B1: Thioredoxin-tagged N-terminal domain of Drosophila melanogaster CTCF (1-163 aa) (domain or fragment, UniProt Q9VS55 1-163, looked up)
chain: MPRRTKKDEDPEDLQTFLNNFHKEIEGNSDEKVVNTILEAISAEAIDLDENGAEAGGSKPMEEAEADLDHAEEAEEEEEDDEDKYFIDDEGNCYIKTTPKKQKELQKKLKQAAAKPGKATRSVVSTATNKSINLRPAKSTPKATTSKPPPEPKAISVRPARAA
notes: CTCF, Drosophila melanogaster, N-terminal domain, residues 1-163; also called dmCTCF NTD; Thioredoxin-tagged Drosophila CTCF NTD
stoichiometry N [3]: 2

B2: N-terminal domain of Drosophila melanogaster CTCF (1-163 aa), without Thioredoxin (domain or fragment, UniProt Q9VS55 1-163, looked up)
chain: MPRRTKKDEDPEDLQTFLNNFHKEIEGNSDEKVVNTILEAISAEAIDLDENGAEAGGSKPMEEAEADLDHAEEAEEEEEDDEDKYFIDDEGNCYIKTTPKKQKELQKKLKQAAAKPGKATRSVVSTATNKSINLRPAKSTPKATTSKPPPEPKAISVRPARAA
notes: Modified pET32a(+) with TEV-cleavable Thioredoxin-6xHis-tag. 'Without Thioredoxin' is said for SEC; for SAXS and DLS the tag state is inferred from the printed monomer mass (18 kDa); also called dmCTCF NTD; dmCTCF-NTD
stoichiometry N [4]: 4
